Bridges are numbered along the chain shown (N, C = ends). Where no end group is shown, it is not given here. [ ]: non-standard residue; d: D form. glucose = glucose (covalently linked to the residue side chain); Dap = NC[C@H](N)C(=O)O; Aib = CC(C)(N)C(=O)O
Target: T1, human Mu Opioid Receptor (MOR) (human, UniProt P35372 1-400)
T1 construct: whole, on cells; also called MOR-CHO(PE)
Assay: competition binding against [3H]diprenorphine on MOR-CHO(PE) membranes
Procedure: Competition Binding at MOR-CHO(PE) Presence of [3H]Diprenorphine: The compounds were also tested for off-target binding to the human Mu Opioid Receptor (MOR), also expressed in CHO cells. Briefly, the experiment involved: Protein: MOR-CHO(PE) Passage: 16; previously frozen cell pellets used and prepared. Protein 15 ug/well used. Serial dilution of compounds and Naloxone(control) used. Total binding absence of compound used, 10uM Naloxone used for nonspecific binding. Each well contained membrane 15 ug/well protein and 2.48 nM Radioligand final conc. Incubated 1 hour in R/T; harvested on GF/B filter, dried O/N. Data are normalized to % Specific binding. MOR-CHO(PE) cell Kd:5.27±2.39 nM. Data are expressed as mean of a single experiment, performed in triplicate. Vehicle contained 0.1% DMSO and 0.1% BSA. (Radioligand:#23067 Lot:2548344 NET: 1121250UC). Table 1 below also summarizes overall MOR binding profile of cyclic oligopeptides of the invention compared to naloxone.

T1 sequence (P35372 whole entry): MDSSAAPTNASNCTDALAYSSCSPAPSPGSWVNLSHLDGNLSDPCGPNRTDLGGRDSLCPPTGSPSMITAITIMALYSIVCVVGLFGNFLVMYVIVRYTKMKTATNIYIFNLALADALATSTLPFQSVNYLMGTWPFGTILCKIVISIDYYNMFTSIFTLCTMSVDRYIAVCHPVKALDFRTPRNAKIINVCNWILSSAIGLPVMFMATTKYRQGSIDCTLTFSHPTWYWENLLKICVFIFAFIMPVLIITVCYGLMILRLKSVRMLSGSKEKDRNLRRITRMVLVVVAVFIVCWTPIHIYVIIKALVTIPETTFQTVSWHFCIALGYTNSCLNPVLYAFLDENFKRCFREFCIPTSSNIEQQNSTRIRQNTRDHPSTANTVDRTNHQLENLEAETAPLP

B1: 2LS118-4 (peptide)
peptide: DYIQN[Dap]PLS(glucose)-NH2
modifications: lactam 1-6
notes: Synthetic cyclic glycopeptide: Asp-Tyr-Ile-Gln-Asn-Dap-Pro-Leu-SerGlc-CONH2, cyclized AA1-AA6; also called compound 2LS118-4
  IC50: > 2500 nM
  Ki: > 2500 nM

B2: 2LS118-1 (peptide)
peptide: DYIQN[Dap]PLG-NH2
modifications: lactam 1-6; N-terminus assumed
SMILES: CC[C@H](C)[C@@H]1NC(=O)[C@H](Cc2ccc(O)cc2)NC(=O)[C@@H](N)CC(=O)NC[C@@H](C(=O)N2CCC[C@H]2C(=O)N[C@@H](CC(C)C)C(=O)NCC(N)=O)NC(=O)[C@H](CC(N)=O)NC(=O)[C@H](CCC(N)=O)NC1=O
notes: Synthetic cyclic oxytocin analogue: Asp-Tyr-Ile-Gln-Asn-Dap-Pro-Leu-Gly-CONH2, cyclized AA1-AA6; also called compound 2LS118-1
  IC50: > 2500 nM
  Ki: > 2500 nM

B3: 2LS118-2 (peptide)
peptide: EYIQN[Dap]PLG-NH2
modifications: lactam 1-6; N-terminus assumed
SMILES: CC[C@H](C)[C@@H]1NC(=O)[C@H](Cc2ccc(O)cc2)NC(=O)[C@@H](N)CCC(=O)NC[C@@H](C(=O)N2CCC[C@H]2C(=O)N[C@@H](CC(C)C)C(=O)NCC(N)=O)NC(=O)[C@H](CC(N)=O)NC(=O)[C@H](CCC(N)=O)NC1=O
notes: Synthetic cyclic oxytocin analogue: Glu-Tyr-Ile-Gln-Asn-Dap-Pro-Leu-Gly-CONH2, cyclized AA1-AA6
  IC50: > 2500 nM
  Ki: > 2500 nM

B4: SSoxy4 (peptide)
peptide: EYIQN[Dap]PLS(glucose)-NH2
modifications: lactam 1-6
notes: Synthetic cyclic glycopeptide: Glu-Tyr-Ile-Gln-Asn-Dap-Pro-Leu-SerGlc-CONH2, cyclized AA1-AA6
  IC50: > 2500 nM
  Ki: > 2500 nM

B5: 2LS118-5 (peptide)
peptide: DYIQN[Dap]PLGS(glucose)-NH2
modifications: lactam 1-6
notes: Synthetic cyclic glycopeptide: Asp-Tyr-Ile-Gln-Asn-Dap-Pro-Leu-Gly-SerGlc-CONH2, cyclized AA1-AA6
  IC50: > 2500 nM
  Ki: > 2500 nM

B6: 2LS118-6 (peptide)
peptide: DYIQN[Dap]PLGS(glucose)S(glucose)-NH2
modifications: lactam 1-6
notes: Synthetic cyclic glycopeptide: Asp-Tyr-Ile-Gln-Asn-Dap-Pro-Leu-Gly-(SerGlc)2-CONH2, cyclized AA1-AA6
  IC50: > 2500 nM
  Ki: > 2500 nM

B7: SSoxy1 (peptide)
peptide: DYIQN[Dap]PLS(lactose)-NH2
modifications: lactam 1-6
notes: Synthetic cyclic glycopeptide: Asp-Tyr-Ile-Gln-Asn-Dap-Pro-Leu-SerLact-CONH2, cyclized AA1-AA6
  IC50: > 2500 nM
  Ki: > 2500 nM

B8: SSoxy2 (peptide)
peptide: DYIQN[Dap]PLGS(lactose)-NH2
modifications: lactam 1-6
notes: Synthetic cyclic glycopeptide: Asp-Tyr-Ile-Gln-Asn-Dap-Pro-Leu-Gly-SerLact-CONH2, cyclized AA1-AA6
  IC50: > 2500 nM
  Ki: > 2500 nM

B9: SSoxy3 (peptide)
peptide: DYIQN[Dap]P[Aib]S(glucose)-NH2
modifications: lactam 1-6
notes: Synthetic cyclic glycopeptide: Asp-Tyr-Ile-Gln-Asn-Dap-Pro-Aib-SerGlc-CONH2, cyclized AA1-AA6
  IC50: > 2500 nM
  Ki: > 2500 nM

B10: SSoxy5 (peptide)
peptide: EYIQN[Dap]P[Aib]S(glucose)-NH2
modifications: lactam 1-6
notes: Synthetic cyclic glycopeptide: Glu-Tyr-Ile-Gln-Asn-Dap-Pro-Aib-SerGlc-CONH2, cyclized AA1-AA6
  IC50: > 2500 nM
  Ki: > 2500 nM

B11: SSoxy6 (peptide)
peptide: EYIQN[Dap]P[Aib]GS(glucose)-NH2
modifications: lactam 1-6
notes: Synthetic cyclic glycopeptide: Glu-Tyr-Ile-Gln-Asn-Dap-Pro-Aib-Gly-SerGlc-CONH2, cyclized AA1-AA6
  IC50: > 2500 nM
  Ki: > 2500 nM

B12: 2LS118-3 (peptide)
peptide: [Dap]YIQNDPLG-NH2
modifications: lactam 1-6; N-terminus assumed
SMILES: CC[C@H](C)[C@@H]1NC(=O)[C@H](Cc2ccc(O)cc2)NC(=O)[C@@H](N)CNC(=O)C[C@@H](C(=O)N2CCC[C@H]2C(=O)N[C@@H](CC(C)C)C(=O)NCC(N)=O)NC(=O)[C@H](CC(N)=O)NC(=O)[C@H](CCC(N)=O)NC1=O
  IC50: > 2500 nM
  Ki: > 2500 nM

— US20230265124A1 (ARIZONA BOARD OF REGENTS ON BEHALF OF THE UNIVERSITY OF …, published 2023)
